Reference: PMC9482650, “Quantitative fragmentomics allow affinity mapping of interactomes” (Nature Communications, 2022)

Experiments:
Experiment in all cases: holdup assay
Design in all cases: key: below the threshold = too weak to quantify, mostly under pKd 3.1 to 4
AHNAK1, Q09666 = target: AHNAK1, Q09666
APBA1_1, Q02410 = target: T1, APBA1_1, Q02410
T1 sequence (Q02410 651-752, limits assumed, looked up): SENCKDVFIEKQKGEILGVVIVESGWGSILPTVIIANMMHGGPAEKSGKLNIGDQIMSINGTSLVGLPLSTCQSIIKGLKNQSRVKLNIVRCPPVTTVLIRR

DLG1_1, Q12959 = target: DLG1_1, Q12959
DLG1_3, Q12959 = target: DLG1_3, Q12959
DLG2_2, Q15700 = target: DLG2_2, Q15700
DLG2_3, Q15700 = target: DLG2_3, Q15700
GIPC2, Q8TF65 = target: GIPC2, Q8TF65
Sequence of GIPC2, Q8TF65 (Q8TF65 112-203): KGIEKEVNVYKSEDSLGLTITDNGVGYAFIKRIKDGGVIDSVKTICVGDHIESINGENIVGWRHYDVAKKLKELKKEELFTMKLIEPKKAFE

GOPC, Q9HD26 = target: GOPC, Q9HD26
GORASP2, Q9H8Y8 = target: GORASP2, Q9H8Y8
GRID2IP_1, A4D2P6 = target: GRID2IP_1, A4D2P6
Sequence of GRID2IP_1, A4D2P6 (A4D2P6 1-87): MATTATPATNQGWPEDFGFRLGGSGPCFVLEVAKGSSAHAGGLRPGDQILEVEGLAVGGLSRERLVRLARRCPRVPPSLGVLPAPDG

GRIP1_2, Q9Y3R0 = target: T2, GRIP1_2, Q9Y3R0
T2 sequence (Q9Y3R0 145-248, limits assumed, looked up): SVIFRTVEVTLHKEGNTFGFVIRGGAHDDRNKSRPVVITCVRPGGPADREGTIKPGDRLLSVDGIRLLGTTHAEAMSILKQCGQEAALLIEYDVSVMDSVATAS

GRIP1_3, Q9Y3R0 = target: T3, GRIP1_3, Q9Y3R0
T3 sequence (Q9Y3R0 247-346, limits assumed, looked up): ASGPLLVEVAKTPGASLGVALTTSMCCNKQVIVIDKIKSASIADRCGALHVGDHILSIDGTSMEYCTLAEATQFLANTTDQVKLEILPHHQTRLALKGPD

GRIP1_7, Q9Y3R0 = target: T4, GRIP1_7, Q9Y3R0
T4 sequence (Q9Y3R0 999-1096, limits assumed, looked up): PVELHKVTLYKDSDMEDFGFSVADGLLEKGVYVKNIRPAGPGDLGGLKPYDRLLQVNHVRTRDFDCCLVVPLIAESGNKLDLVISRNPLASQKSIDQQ

GRIP2_7, Q9C0E4 = target: GRIP2_7, Q9C0E4
Sequence of GRIP2_7, Q9C0E4 (Q9C0E4 934-1023): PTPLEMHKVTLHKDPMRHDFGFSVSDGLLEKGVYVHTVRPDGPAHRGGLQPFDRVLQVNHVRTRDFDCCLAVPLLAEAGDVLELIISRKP

Inadl_1, Q8NI35 = target: Inadl_1, Q8NI35
Sequence of Inadl_1, Q8NI35 (Q8NI35 113-229): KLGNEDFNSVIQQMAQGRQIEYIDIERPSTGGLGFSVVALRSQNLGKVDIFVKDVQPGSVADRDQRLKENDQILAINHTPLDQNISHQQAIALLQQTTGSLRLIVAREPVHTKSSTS

LDB3, O75112 = target: LDB3, O75112
Sequence of LDB3, O75112 (O75112 1-94): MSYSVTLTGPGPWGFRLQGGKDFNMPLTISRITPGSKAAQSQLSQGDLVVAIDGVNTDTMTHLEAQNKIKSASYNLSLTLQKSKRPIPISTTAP

LIN7A, O14910 = target: T5, LIN7A, O14910
T5 sequence (O14910 103-200, limits assumed, looked up): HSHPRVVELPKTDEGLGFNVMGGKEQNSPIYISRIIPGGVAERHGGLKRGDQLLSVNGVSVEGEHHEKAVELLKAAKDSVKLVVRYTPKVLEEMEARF

MAGI2_2, Q86UL8 = target: MAGI2_2, Q86UL8
Sequence of MAGI2_2, Q86UL8 (Q86UL8 410-522): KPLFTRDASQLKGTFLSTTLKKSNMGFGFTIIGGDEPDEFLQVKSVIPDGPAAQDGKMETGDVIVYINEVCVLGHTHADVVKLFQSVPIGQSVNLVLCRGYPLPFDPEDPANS

MAGI2_3, Q86UL8 = target: MAGI2_3, Q86UL8
Sequence of MAGI2_3, Q86UL8 (Q86UL8 600-682): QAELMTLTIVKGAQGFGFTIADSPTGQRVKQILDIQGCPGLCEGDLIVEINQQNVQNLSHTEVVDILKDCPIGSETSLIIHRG

MPDZ_10, O75970 = target: T6, MPDZ_10, O75970
T6 sequence (O75970 1624-1722, limits assumed, looked up): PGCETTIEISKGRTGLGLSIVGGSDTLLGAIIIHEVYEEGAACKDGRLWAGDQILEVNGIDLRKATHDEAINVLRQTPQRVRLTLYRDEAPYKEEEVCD

NHERF3_1, Q5T2W1 = target: T7, NHERF3_1, Q5T2W1
T7 sequence (Q5T2W1 4-100, limits assumed, looked up): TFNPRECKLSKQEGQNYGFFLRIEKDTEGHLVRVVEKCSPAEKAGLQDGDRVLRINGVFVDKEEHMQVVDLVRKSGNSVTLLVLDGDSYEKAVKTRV

NHERF4_4, Q86UT5 = target: NHERF4_4, Q86UT5
Sequence of NHERF4_4, Q86UT5 (Q86UT5 464-550): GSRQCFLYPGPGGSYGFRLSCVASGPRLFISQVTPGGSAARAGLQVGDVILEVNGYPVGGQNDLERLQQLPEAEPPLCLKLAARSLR

PCLO, Q9Y6V0 = target: T8, PCLO, Q9Y6V0
T8 sequence (Q9Y6V0 4491-4600, limits assumed, looked up): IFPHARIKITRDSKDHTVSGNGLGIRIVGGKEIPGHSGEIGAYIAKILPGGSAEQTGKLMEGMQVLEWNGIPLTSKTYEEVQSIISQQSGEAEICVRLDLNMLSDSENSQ

RADIL, Q96JH8 = target: T9, RADIL, Q96JH8
T9 sequence (Q96JH8 971-1071, limits assumed, looked up): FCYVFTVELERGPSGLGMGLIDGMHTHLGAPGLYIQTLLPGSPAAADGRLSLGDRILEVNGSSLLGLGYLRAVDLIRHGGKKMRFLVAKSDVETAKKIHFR

SCRIB_3, Q14160 = target: SCRIB_3, Q14160
Sequence of SCRIB_3, Q14160 (Q14160 999-1103): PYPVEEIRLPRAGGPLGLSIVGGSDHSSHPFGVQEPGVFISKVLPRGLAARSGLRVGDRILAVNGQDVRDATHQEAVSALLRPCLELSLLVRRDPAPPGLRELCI

TIAM2, Q8IVF5 = target: T10, TIAM2, Q8IVF5
T10 sequence (Q8IVF5 885-986, limits assumed, looked up): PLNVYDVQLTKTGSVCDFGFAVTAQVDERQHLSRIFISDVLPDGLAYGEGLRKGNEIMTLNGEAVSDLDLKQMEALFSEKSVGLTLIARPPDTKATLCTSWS

TJP1_2, Q07157 = target: TJP1_2, Q07157
Sequence of TJP1_2, Q07157 (Q07157 181-274): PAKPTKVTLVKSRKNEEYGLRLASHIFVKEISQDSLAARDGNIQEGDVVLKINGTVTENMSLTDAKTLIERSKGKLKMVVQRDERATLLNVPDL

TJP1_3, Q07157 = target: TJP1_3, Q07157
Sequence of TJP1_3, Q07157 (Q07157 416-512): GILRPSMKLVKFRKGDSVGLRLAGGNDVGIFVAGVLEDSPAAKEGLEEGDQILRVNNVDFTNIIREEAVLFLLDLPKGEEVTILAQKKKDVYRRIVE

[1] = plain residues with an end cap or a label only (N-terminal biotin on a linker: ado-ado)
[2] = plain residues with an end cap or a label only (N-terminal biotin on a linker: ahx)

Sequence of AHNAK1, Q09666 (Q09666 4-100): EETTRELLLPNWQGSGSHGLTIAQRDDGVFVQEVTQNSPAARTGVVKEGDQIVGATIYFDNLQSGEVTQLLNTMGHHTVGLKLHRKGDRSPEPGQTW

PTPDLPQTRV [KLHDC7A, Q5VTJ3]
pKd (AHNAK1, Q09666; [1]): below the threshold
pKd (APBA1_1, Q02410; [1]): below the threshold
pKd (DLG1_1, Q12959; [1]): below the threshold
pKd (DLG1_3, Q12959; [1]): below the threshold
pKd (DLG2_2, Q15700; [1]): below the threshold
pKd (DLG2_3, Q15700; [1]): 3.91
pKd (GIPC2, Q8TF65; [1]): below the threshold
pKd (GOPC, Q9HD26; [1]): 4.89
pKd (GORASP2, Q9H8Y8; [1]): below the threshold
pKd (GRID2IP_1, A4D2P6; [1]): below the threshold
pKd (GRIP1_2, Q9Y3R0; [1]): below the threshold
pKd (GRIP1_3, Q9Y3R0; [1]): below the threshold
pKd (GRIP1_7, Q9Y3R0; [1]): below the threshold
pKd (GRIP2_7, Q9C0E4; [1]): below the threshold
pKd (Inadl_1, Q8NI35; [1]): below the threshold
pKd (LDB3, O75112; [1]): below the threshold
pKd (LIN7A, O14910; [1]): below the threshold
pKd (MAGI2_2, Q86UL8; [1]): 3.86
pKd (MAGI2_3, Q86UL8; [1]): 3.77
pKd (MPDZ_10, O75970; [1]): 3.52
pKd (NHERF3_1, Q5T2W1; [1]): 4.36
pKd (NHERF4_4, Q86UT5; [1]): below the threshold
pKd (PCLO, Q9Y6V0; [1]): below the threshold
pKd (RADIL, Q96JH8; [1]): below the threshold
pKd (SCRIB_3, Q14160; [1]): below the threshold
pKd (TIAM2, Q8IVF5; [1]): 3.86
pKd (TJP1_2, Q07157; [1]): below the threshold
pKd (TJP1_3, Q07157; [1]): below the threshold

NTANRRTTPV [CACNG2, Q9Y698]
pKd (AHNAK1, Q09666; [1]): below the threshold
pKd (APBA1_1, Q02410; [1]): below the threshold
pKd (DLG1_1, Q12959; [1]): 4.34
pKd (DLG1_3, Q12959; [1]): 4.16
pKd (DLG2_2, Q15700; [1]): 4.53
pKd (DLG2_3, Q15700; [1]): 4.82
pKd (GIPC2, Q8TF65; [1]): below the threshold
pKd (GOPC, Q9HD26; [1]): below the threshold
pKd (GORASP2, Q9H8Y8; [1]): below the threshold
pKd (GRID2IP_1, A4D2P6; [1]): below the threshold
pKd (GRIP1_2, Q9Y3R0; [1]): below the threshold
pKd (GRIP1_3, Q9Y3R0; [1]): below the threshold
pKd (GRIP1_7, Q9Y3R0; [1]): below the threshold
pKd (GRIP2_7, Q9C0E4; [1]): below the threshold
pKd (Inadl_1, Q8NI35; [1]): below the threshold
pKd (LDB3, O75112; [1]): below the threshold
pKd (LIN7A, O14910; [1]): below the threshold
pKd (MAGI2_2, Q86UL8; [1]): 4.98
pKd (MAGI2_3, Q86UL8; [1]): below the threshold
pKd (MPDZ_10, O75970; [1]): 3.87
pKd (NHERF3_1, Q5T2W1; [1]): below the threshold
pKd (NHERF4_4, Q86UT5; [1]): below the threshold
pKd (PCLO, Q9Y6V0; [1]): below the threshold
pKd (RADIL, Q96JH8; [1]): below the threshold
pKd (SCRIB_3, Q14160; [1]): 3.92
pKd (TIAM2, Q8IVF5; [1]): below the threshold
pKd (TJP1_2, Q07157; [1]): below the threshold
pKd (TJP1_3, Q07157; [1]): below the threshold

NTLNRKTTPV [CACNG8, Q8WXS5]
pKd (AHNAK1, Q09666; [1]): below the threshold
pKd (APBA1_1, Q02410; [1]): below the threshold
pKd (DLG1_1, Q12959; [1]): 4.32
pKd (DLG1_3, Q12959; [1]): 4.33
pKd (DLG2_2, Q15700; [1]): 4.61
pKd (DLG2_3, Q15700; [1]): 4.9
pKd (GIPC2, Q8TF65; [1]): below the threshold
pKd (GOPC, Q9HD26; [1]): 3.72
pKd (GORASP2, Q9H8Y8; [1]): below the threshold
pKd (GRID2IP_1, A4D2P6; [1]): below the threshold
pKd (GRIP1_2, Q9Y3R0; [1]): 3.61
pKd (GRIP1_3, Q9Y3R0; [1]): below the threshold
pKd (GRIP1_7, Q9Y3R0; [1]): 3.49
pKd (GRIP2_7, Q9C0E4; [1]): below the threshold
pKd (Inadl_1, Q8NI35; [1]): below the threshold
pKd (LDB3, O75112; [1]): below the threshold
pKd (LIN7A, O14910; [1]): below the threshold
pKd (MAGI2_2, Q86UL8; [1]): 4.93
pKd (MAGI2_3, Q86UL8; [1]): 3.85
pKd (MPDZ_10, O75970; [1]): 3.84
pKd (NHERF3_1, Q5T2W1; [1]): 3.48
pKd (NHERF4_4, Q86UT5; [1]): 3.99
pKd (PCLO, Q9Y6V0; [1]): below the threshold
pKd (RADIL, Q96JH8; [1]): below the threshold
pKd (SCRIB_3, Q14160; [1]): 3.88
pKd (TIAM2, Q8IVF5; [1]): below the threshold
pKd (TJP1_2, Q07157; [1]): below the threshold
pKd (TJP1_3, Q07157; [1]): below the threshold

TQKFRASTAL [FRMPD1, Q5SYB0]
pKd (AHNAK1, Q09666; [2]): below the threshold
pKd (APBA1_1, Q02410; [2]): below the threshold
pKd (DLG1_1, Q12959; [2]): below the threshold
pKd (DLG1_3, Q12959; [2]): 3.49
pKd (DLG2_2, Q15700; [2]): 4.17
pKd (DLG2_3, Q15700; [2]): below the threshold
pKd (GIPC2, Q8TF65; [2]): below the threshold
pKd (GOPC, Q9HD26; [2]): 4.12
pKd (GORASP2, Q9H8Y8; [2]): below the threshold
pKd (GRID2IP_1, A4D2P6; [2]): below the threshold
pKd (GRIP1_2, Q9Y3R0; [2]): below the threshold
pKd (GRIP1_3, Q9Y3R0; [2]): below the threshold
pKd (GRIP1_7, Q9Y3R0; [2]): below the threshold
pKd (GRIP2_7, Q9C0E4; [2]): below the threshold
pKd (Inadl_1, Q8NI35; [2]): below the threshold
pKd (LDB3, O75112; [2]): below the threshold
pKd (LIN7A, O14910; [2]): below the threshold
pKd (MAGI2_2, Q86UL8; [2]): 4.18
pKd (MAGI2_3, Q86UL8; [2]): below the threshold
pKd (MPDZ_10, O75970; [2]): below the threshold
pKd (NHERF3_1, Q5T2W1; [2]): 5.47
pKd (NHERF4_4, Q86UT5; [2]): below the threshold
pKd (PCLO, Q9Y6V0; [2]): below the threshold
pKd (RADIL, Q96JH8; [2]): below the threshold
pKd (SCRIB_3, Q14160; [2]): 4.59
pKd (TIAM2, Q8IVF5; [2]): below the threshold
pKd (TJP1_2, Q07157; [2]): below the threshold
pKd (TJP1_3, Q07157; [2]): below the threshold
